In US20210206851A1 (MacroGenics, published 2021):

Legend:
[1] = target: T1, soluble human LAG-3-Fc fusion protein (shLAG-3-Fc) (human, UniProt P18627 23-450, biotinylated in the Daudi cell assay); assay: flow cytometry, blocking of biotinylated soluble human LAG-3-Fc binding to MHC class II on Daudi cells
T1 construct: also called biotinylated-soluble human LAG-3-Fc fusion protein; not shown: Fc portion; detected with goat anti-human Fc gamma
T1 sequence: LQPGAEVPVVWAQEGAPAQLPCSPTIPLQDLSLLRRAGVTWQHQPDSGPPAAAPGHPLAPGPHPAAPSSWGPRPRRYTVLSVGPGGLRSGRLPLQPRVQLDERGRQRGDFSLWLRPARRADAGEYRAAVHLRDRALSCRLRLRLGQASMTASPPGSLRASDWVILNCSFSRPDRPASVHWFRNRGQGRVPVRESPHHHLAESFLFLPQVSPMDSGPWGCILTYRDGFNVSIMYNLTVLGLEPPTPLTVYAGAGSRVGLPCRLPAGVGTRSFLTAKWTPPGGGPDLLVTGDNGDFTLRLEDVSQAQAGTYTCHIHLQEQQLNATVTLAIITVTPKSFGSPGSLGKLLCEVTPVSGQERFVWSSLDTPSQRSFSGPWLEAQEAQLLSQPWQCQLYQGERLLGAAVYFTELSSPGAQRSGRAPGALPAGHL

[2] = target: T2, His-tagged soluble human LAG-3 (shLAG-3-His) (human, UniProt P18627 23-450); assay: SPR (Biacore); antibody captured on immobilized Fab2 goat-anti-mouse Fc, shLAG-3-His in solution
T2 construct: also called soluble human LAG-3-His fusion protein; extracellular domain of human LAG-3 fused to a His tag; not shown: His tag
T2 sequence: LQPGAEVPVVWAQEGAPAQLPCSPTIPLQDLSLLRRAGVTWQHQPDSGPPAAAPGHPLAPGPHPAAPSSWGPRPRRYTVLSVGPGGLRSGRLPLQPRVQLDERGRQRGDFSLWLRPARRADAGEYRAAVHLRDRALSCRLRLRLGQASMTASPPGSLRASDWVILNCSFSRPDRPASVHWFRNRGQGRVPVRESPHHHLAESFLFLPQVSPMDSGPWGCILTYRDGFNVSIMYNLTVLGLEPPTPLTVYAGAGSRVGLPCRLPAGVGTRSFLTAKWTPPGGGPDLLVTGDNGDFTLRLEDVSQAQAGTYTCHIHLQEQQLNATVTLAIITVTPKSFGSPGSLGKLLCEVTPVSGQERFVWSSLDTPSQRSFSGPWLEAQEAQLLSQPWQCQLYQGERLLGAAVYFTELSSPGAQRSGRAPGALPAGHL

[3] = target: T1, soluble human LAG-3-Fc fusion protein …; assay: ELISA, blocking; antibody mixed with soluble human LAG-3-Fc (5 ug/mL), binding to immobilized MHC class II
[4] = target: T2, His-tagged soluble human LAG-3 …; assay: SPR (Biacore); antibody captured on immobilized Protein G, shLAG-3-His in solution
[5] = target: T1, soluble human LAG-3-Fc fusion protein …; assay: flow cytometry, blocking of biotinylated soluble human LAG-3-Fc binding to MHC class II on Daudi cells; remark: listed apart in the source
[6] = target: T2, His-tagged soluble human LAG-3 …; assay: ELISA, blocking; antibody mixed with soluble human LAG-3-His (0.2 ug/ml), binding to immobilized MHC class II
[7] = target: T3, soluble human LAG-3 fusion protein (extracellular domain of human LAG-3 fused to murine IgG2a) (human; murine, UniProt P18627 23-450); assay: SPR (Biacore); human LAG-3 ECD-murine IgG2a fusion captured on Fab2 goat-anti-mouse Fc, antibody in solution
T3 construct: also called human LAG-3-murine IgG2a fusion protein; not shown: murine IgG2a
T3 sequence: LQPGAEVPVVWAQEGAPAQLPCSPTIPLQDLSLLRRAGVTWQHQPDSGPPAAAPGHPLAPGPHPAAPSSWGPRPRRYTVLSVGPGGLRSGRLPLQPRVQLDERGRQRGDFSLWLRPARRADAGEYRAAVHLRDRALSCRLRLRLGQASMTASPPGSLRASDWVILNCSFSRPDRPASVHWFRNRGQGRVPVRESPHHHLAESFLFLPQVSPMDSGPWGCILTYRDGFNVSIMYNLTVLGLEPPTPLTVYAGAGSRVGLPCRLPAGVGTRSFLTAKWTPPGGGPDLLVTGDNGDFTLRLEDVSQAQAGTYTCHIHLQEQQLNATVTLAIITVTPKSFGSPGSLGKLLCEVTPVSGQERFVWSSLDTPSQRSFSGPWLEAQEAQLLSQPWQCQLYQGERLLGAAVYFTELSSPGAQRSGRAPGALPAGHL

[8] = target: T4, soluble cynomolgus monkey LAG-3 fusion protein (extracellular domain of cynomolgus monkey LAG-3 fused to … (cynomolgus monkey; murine); assay: SPR (Biacore); cynomolgus LAG-3 ECD-murine IgG2a fusion captured on Fab2 goat-anti-mouse Fc, antibody in solution
T4 construct: extracellular domain; also called cynomolgus LAG-3-murine IgG2a fusion protein

[9] = target: T2, His-tagged soluble human LAG-3 …; assay: SPR (Biacore); antibody captured on immobilized Protein A, shLAG-3-His in solution
[10] = target: T2, His-tagged soluble human LAG-3 …; assay: SPR (Biacore); antibody captured on immobilized Fab2 goat anti-human Fc, shLAG-3-His in solution

B1: LAG-3 mAb 1 (antibody, V domains shown)
VH: QIQLVQSGPELKKPGETVKISCKASGYTFRNYGMNWVKQAPGKVLKWMGWINTYTGESTYADDFEGRFAFSLGTSASTAYLQINILKNEDTATYFCARESLYDYYSMDYWGQGTSVTVSS
VL: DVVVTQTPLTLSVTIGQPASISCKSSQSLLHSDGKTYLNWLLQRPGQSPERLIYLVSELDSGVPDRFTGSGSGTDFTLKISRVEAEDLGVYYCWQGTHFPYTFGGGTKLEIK
notes: Murine monoclonal antibody; also called murine anti-human antibody LAG-3 mAb 1
- IC50 (read off the curve) [1]: ~100 ng/mL
- Kd [2]: 0.013 nM
- IC50 (read off the curve) [3]: ~20 nM
- Kd [4]: 0.01 nM
- IC50 (read off the curve) [5]: ~3 ng/mL

B2: LAG-3 mAb 3 (antibody, V domains shown)
VH: EVRLQQSGPELVKPGASVKISCKASGYTFTDYNIHWVRQSHGQSLEWIGYIYPYNGDTGYNQKFKTKATLTVDNSSNTAYMELRSLASEDSAVYYCTRWSRNYFGPWFAYWGQGTLVTVSA
VL: DIVLTQSPTSLAVSLGQRATISCKASQSVDYDGDSYMNWYQQKPGQPPKLLIYAASNLESGIPARFSGSGSGTDFTLNIHPVEEEDAATYYCQQSSEDPLTFGAGTKLELK
notes: Murine monoclonal antibody
- Kd [2]: 4.4 nM
- IC50 (read off the curve) [3]: ~30 nM
- IC50 (read off the curve) [5]: ~3 ng/mL

B3: LAG-3 mAb 2 (antibody, V domains shown)
VH: EVQLQQSGPELVKPGASVKISCKTSGYTFTDYNIHWLRQSHGESLEWIGYIYPYSGDIGYNQKFKNRATLTVDNSSSTAYMDLRSLTSEDSAVFYCARWHRNYFGPWFAYWGQGTPVTVSA
VL: DIVLTQSPASLAVSLGQRATISCKASQSVDYDGESYMNWYQQKPGQPPKLLIYVVSNLESGIPARFSGSGSGTDFTLNIHPVEEEDAATYYCQQSSEDPLTFGAGTKLELK
notes: Murine monoclonal antibody
- Kd [2]: 1.9 nM
- IC50 (read off the curve) [5]: ~3 ng/mL

B4: LAG-3 mAb 5 (antibody, V domains shown)
VH: EVQLQQSGPELVKPGASVKISCKASGYTFTDYNIHWVKQSPGKSLEWIGYIYPYSGDFGYNQKFKSKATLTVDNSSSTAYMDLRSLTSEDSAVFYCARWHRNYFGPWFAYWGQGTLVTVSA
VL: DIVLTQSPASLAVSLGQRATISCKASQSVDYDGESYMNWYQQKPGQPPKLLIYVVSNLESGIPARFSGSGSGTDFTLNIHPVEEEDAATYYCQQSSEDPLTFGAGTKLELK
notes: Murine monoclonal antibody
- Kd [2]: 0.9 nM
- IC50 (read off the curve) [3]: ~30 nM
- IC50 (read off the curve) [5]: ~3 ng/mL

B5: LAG-3 mAb A (antibody, V domains shown)
VH: QVQLQQWGAGLLKPSETLSLTCAVYGGSFSDYYWNWIRQPPGKGLEWIGEINHNGNTNSNPSLKSRVTLSLDTSKNQFSLKLRSVTAADTAVYYCAFGYSDYEYNWFDPWGQGTLVTVSS
VL: EIVLTQSPATLSLSPGERATLSCRASQSISSYLAWYQQKPGQAPRLLIYDASNRATGIPARFSGSGSGTDFTLTISSLEPEDFAVYYCQQRSNWPLTFGQGTNLEIK
notes: also called 25F7; BMS-986016
- IC50 (read off the curve) [6]: ~0.2 nM
- IC50 (read off the curve) [1]: ~100 ng/mL
- IC50 (read off the curve) [5]: ~3 ng/mL

B6: hLAG-3 mAb 1 (1.4) (constant region not stated) (antibody, V domains shown)
VH: QVQLVQSGAEVKKPGASVKVSCKASGYTFTNYGMNWVRQAPGQGLEWMGWINTYTGESTYADDFEGRFVFSMDTSASTAYLQISSLKAEDTAVYYCARESLYDYYSMDYWGQGTTVTVSS
VL: DIVMTQTPLSLSVTPGQPASISCKSSQSLLHSDAKTYLNWLLQKPGQPPERLIYLVSELDSGVPDRFSGSGSGTDFTLKISRVEAEDVGVYYCWQGTHFPYTFGGGTKVEIK
notes: also called hLAG-3 1 (1.4); humanized hLAG-3 1 (1.4)
- Kd [7]: < 0.29 nM
- IC50 (read off the curve) [6]: ~0.3 nM
- Kd [8]: < 0.53 nM

B7: hLAG-3 mAb 6 (1.1) (antibody, V domains shown)
VH: QVQLVQSGAEVKKPGASVKVSCKASGYTFTDYNMDWVRQAPGQGLEWMGDINPDNGVTIYNQKFEGRVTMTTDTSTSTAYMELRSLRSDDTAVYYCAREADYFYFDYWGQGTTLTVSS
VL: DIQMTQSPSSLSASVGDRVTITCRASQDVSSVVAWYQQKPGKAPKLLIYSASYRYTGVPSRFSGSGSGTDFTLTISSLQPEDFATYYCQQHYSTPWTFGGGTKLEIK
notes: also called hLAG-3 6 (1.1); humanized LAG-3 mAb 6
- Kd [7]: < 0.1 nM
- IC50 (read off the curve) [6]: ~0.3 nM
- Kd [8]: 3.7 nM

B8: LAG-3 mAb 4 (antibody, V domains shown)
VH: EVQLHQSGPELVKPGASVKISCKTSGYTFTDYNIHWVKQSHGKSLEWIGYIYPYNGDAGYNQNFKTKATLTVDNSSSTAYMELRSLTSEDSAVYYCARWNMNYFGPWFAYWGQGTLVTVSA
VL: DIVLTQSPASLAVSLGQRATISCKASQSVDYDGVTYINWYQQKPGQPPKLLIFAASNLESGIPARFSGSGSGTDFTLNIHPVEEEDAATYYCQQSNEDPLTFGAGTKLELK
notes: Murine monoclonal antibody
- Kd [2]: 0.8 nM
- IC50 (read off the curve) [5]: ~3 ng/mL

B9: LAG-3 mAb 6 (antibody, V domains shown)
VH: EVLLQQSGPELVKPGASVKIPCKASGYTFTDYNMDWVKQSHGESLEWIGDINPDNGVTIYNQKFEGKATLTVDKSSSTAYMELRSLTSEDTAVYYCAREADYFYFDYWGQGTTLTVSS
VL: DIVMTQSHRFMSTSVGDRVSITCKASQDVSSVVAWYQQKPGQSPKLLIFSASYRYTGVPDRFTGSGSGTDFTFTISSVQAADLAVYYCQQHYSTPWTFGGGTKLEIK
notes: Murine monoclonal antibody
- IC50 (read off the curve) [1]: ~200 ng/mL
- Kd [2]: 0.02 nM

B10: hLAG-3 mAb 1 (1.2), human IgG1 (AA) (antibody, V domains shown)
VH: QVQLVQSGAEVKKPGASVKVSCKASGYTFTNYGMNWVRQAPGQGLEWMGWINTYTGESTYADDFEGRFVFSMDTSASTAYLQISSLKAEDTAVYYCARESLYDYYSMDYWGQGTTVTVSS
VL: DIVMTQTPLSLSVTPGQPASISCKSSQSLLHSDGKTYLNWLLQRPGQSPERLIYLVSELDSGVPDRFSGSGSGTDFTLKISRVEAEDVGVYYCWQGTHFPYTFGGGTKVEIKR
notes: also called hLAG-3 1 (1.2)
- Kd [9]: 0.01 nM

B11: hLAG-3 mAb 1 (1.1), human IgG1 (AA) (antibody, V domains shown)
VH: QVQLVQSGAEVKKPGASVKVSCKASGYTFTNYGMNWVRQAPGQGLEWMGWINTYTGESTYADDFEGRFVFSMDTSASTAYLQISSLKAEDTAVYYCARESLYDYYSMDYWGQGTTVTVSS
VL: DIVMTQTPLSLSVTPGQPASISCKSSQSLLHSDGKTYLNWLLQKPGQSPERLIYLVSELDSGVPDRFSGSGSGTDFTLKISRVEAEDVGVYYCWQGTHFPYTFGGGTKVEIKR
notes: also called hLAG-3 1 (1.1)
- Kd [9]: 0.04 nM

B12: hLAG-3 mAb 1 (1.4), human IgG1 (AA) (antibody)
heavy: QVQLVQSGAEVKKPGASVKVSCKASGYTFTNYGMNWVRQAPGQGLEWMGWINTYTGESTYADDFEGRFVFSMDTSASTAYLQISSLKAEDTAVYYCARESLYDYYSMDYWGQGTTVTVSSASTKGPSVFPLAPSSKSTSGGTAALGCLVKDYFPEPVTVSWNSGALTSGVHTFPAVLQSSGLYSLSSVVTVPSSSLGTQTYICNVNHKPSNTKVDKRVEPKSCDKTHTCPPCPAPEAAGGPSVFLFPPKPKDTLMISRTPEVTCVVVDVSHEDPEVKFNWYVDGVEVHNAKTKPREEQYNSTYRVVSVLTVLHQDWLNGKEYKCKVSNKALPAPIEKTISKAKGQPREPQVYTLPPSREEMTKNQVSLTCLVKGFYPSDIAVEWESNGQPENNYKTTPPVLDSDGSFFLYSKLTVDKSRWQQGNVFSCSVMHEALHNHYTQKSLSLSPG
light: DIVMTQTPLSLSVTPGQPASISCKSSQSLLHSDAKTYLNWLLQKPGQPPERLIYLVSELDSGVPDRFSGSGSGTDFTLKISRVEAEDVGVYYCWQGTHFPYTFGGGTKVEIKRTVAAPSVFIFPPSDEQLKSGTASVVCLLNNFYPREAKVQWKVDNALQSGNSQESVTEQDSKDSTYSLSSTLTLSKADYEKHKVYACEVTHQGLSSPVTKSFNRGEC
notes: also called hLAG-3 mAb 1 (1.4)^c, e
- Kd [10]: 0.04 nM

B13: hLAG-3 mAb 1 (2.2), human IgG1 (AA) (antibody, V domains shown)
VH: QVQLVQSGAEVKKPGASVKVSCKASGYTFTNYGMNWVRQAPGQGLEWMGWINTYTGESTYADDFEGRFVFSMDTSASTAYLQISSLKAEDTAVYFCARESLYDYYSMDYWGQGTTVTVSS
VL: DIVMTQTPLSLSVTPGQPASISCKSSQSLLHSDGKTYLNWLLQRPGQSPERLIYLVSELDSGVPDRFSGSGSGTDFTLKISRVEAEDVGVYYCWQGTHFPYTFGGGTKVEIKR
notes: also called hLAG-3 1 (2.2)
- Kd [9]: 0.3 nM

B14: hLAG-3 mAb 1 (1.4), IgG4 (S228P) (antibody)
heavy: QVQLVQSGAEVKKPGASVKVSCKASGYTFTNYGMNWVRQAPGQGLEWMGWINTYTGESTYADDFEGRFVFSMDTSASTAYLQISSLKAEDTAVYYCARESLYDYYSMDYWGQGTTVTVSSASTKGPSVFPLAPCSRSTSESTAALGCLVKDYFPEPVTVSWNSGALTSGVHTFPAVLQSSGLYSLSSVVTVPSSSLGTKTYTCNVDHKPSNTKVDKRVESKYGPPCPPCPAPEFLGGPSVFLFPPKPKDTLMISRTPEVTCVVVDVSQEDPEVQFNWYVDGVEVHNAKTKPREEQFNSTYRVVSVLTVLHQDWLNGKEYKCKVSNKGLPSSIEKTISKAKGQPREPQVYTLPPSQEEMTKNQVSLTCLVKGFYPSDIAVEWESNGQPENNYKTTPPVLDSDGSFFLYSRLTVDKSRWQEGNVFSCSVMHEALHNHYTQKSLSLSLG
light: DIVMTQTPLSLSVTPGQPASISCKSSQSLLHSDAKTYLNWLLQKPGQPPERLIYLVSELDSGVPDRFSGSGSGTDFTLKISRVEAEDVGVYYCWQGTHFPYTFGGGTKVEIKRTVAAPSVFIFPPSDEQLKSGTASVVCLLNNFYPREAKVQWKVDNALQSGNSQESVTEQDSKDSTYSLSSTLTLSKADYEKHKVYACEVTHQGLSSPVTKSFNRGEC
notes: also called hLAG-3 mAb 1 (1.4)^c, f
- Kd [10]: 0.05 nM
